B1: RHOBTB3 (parent)
chain: DSCCPAGIFQAMCLLICAEMYQVS
B2: ZNF449 (parent)
chain: FQEYDTDCEVFRQRFRQFQYREAA

Variants of: B1
Experiment: protein stability index of a GFP-peptide fusion (GPS, HEK-293T) (PSI 1-6); higher = more stable
Conditions: c terminus: a fixed tail appended
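Note: lentivirally expressed fusions sorted by FACS into six bins by GFP to DsRed ratio, PSI derived from sequencing read proportions per bin multiplied by bin number.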

Protein stability index of substitutions, site by site:
I16: E 1.7 | L 2.92 | N 2.67 | D 1.34 | M 2.51 | H 2.82 | G 3.97
L14: I 2.24 | T 2.78 | E 3.59 | A 3.65
V23: I 4.12 | P 2.88 | W 3.16 | K 2.33 | C 3.74 | D 1.45
E19: L 5.4 | K 2.48 | G 2.99 | D 2.72 | S 2.06 | N 2.31 | M 1.55 | V 3.28 | A 2.92
L15: Y 1.98 | H 1.08 | W 1.09 | S 3.51 | M 2.19 | I 3.1 | F 2.97 | N 1.98
Y21: I 4.41 | E 2.38 | R 2.92 | G 3.18 | K 1.9
A18: L 2.35 | C 2.87 | H 3.29
S24: L 3.43 | M 1.94 | I 1.96 | Q 3.86 | Y 3.56 | N 3.14 | P 4.65 | T 3.71 | C 2.39 | K 3.25 | F 2.53 | A 3.22 | G 2.36
Q22: I 2.2 | P 2.12 | Y 2.33 | A 3.15 | R 3.1 | V 3.65 | T 3.27 | S 2.99 | D 2.17 | G 3.65 | W 2.54
C17: D 1.91 | N 3.58 | T 2.97 | H 4.02 | M 5.55 | R 4.51
M20: V 2.24 | T 2.03

Variants of: B2
Experiment: as above
Conditions: c terminus: a fixed tail appended

Protein stability index: each site, then its substitutions
F15: E 2.92 | D 3.43 | G 2.85 | A 3.02 | C 2.83
V10: N 2.67 | M 2.63 | R 2.37 | K 2.35 | S 2.78 | I 2.5 | L 2.3 | E 3.08 | P 2.92 | T 2.49 | G 2.9 | W 2.13 | F 2.86 | D 3.02 | Q 3.27 | Y 2.62 | C 2.52 | H 3 | A 2.2
Y4: M 2.25 | T 1.7 | A 2.12 | R 2.14 | H 2.33 | D 3.03 | P 2.28 | E 3.79 | N 2.33 | K 2.85 | I 2.42 | S 2.27 | Q 2.66 | C 3.01 | F 2.5 | V 2.41
F11: P 3.33 | Q 3.24 | D 3.95 | K 3.14 | Y 2.78 | G 3.6 | M 3.27 | E 3.51 | S 2.94 | N 3.57 | V 3.68 | T 3.15 | I 2.72 | L 2.54 | W 2.37 | R 4.69 | H 3.45 | C 2.99
D5: N 2.68 | S 2.28 | L 2.5 | H 1.76 | T 1.35 | K 2.64 | E 2.45 | F 1.65 | I 1.42 | C 2.09 | Q 1.57 | V 1.23 | G 1.78 | R 1.79 | M 2.05 | W 1.29 | A 2.25 | Y 2.55
Q2: N 2.93 | R 2.09 | V 1.68 | L 2.33 | S 3.32 | F 2.48 | W 2.67 | E 2.73 | C 2.26 | Y 2.5 | P 2.72 | A 2.9 | I 1.97 | T 2.69 | D 3.19 | K 2.96 | H 1.78 | G 2.59 | M 2.61
R12: Y 2.06 | C 1.71 | V 2.21 | H 2.3 | G 2.57 | K 2.38 | F 2.54 | E 2.48 | M 2.24 | A 3.29 | W 1.94 | N 2.27 | L 1.97 | Q 2.61 | T 2.41 | P 2.35 | D 3.31 | S 2.53 | I 2.14
D7: H 2.12 | L 1.93 | A 1.53 | K 2.02 | G 2.02 | R 2.3 | T 2.08 | Y 1.34 | I 2.25 | N 1.83 | C 1.1 | E 2.26 | S 2.1 | M 1.59 | P 1.61 | F 2.27 | V 1.34 | Q 2.68
F1: P 3.42 | N 3.23 | R 2.43 | C 2.6 | T 3.22 | I 2.81 | H 3.24 | M 3.03 | E 3.25 | L 3.19 | Y 2.25 | W 2.82 | G 3.31 | Q 2.79 | S 2.85 | A 2.85 | D 3.01
E9: N 2.35 | M 2.65 | I 2.47 | T 1.89 | V 1.79 | W 2.02 | Y 1.27 | L 1.67 | Q 1.88 | S 1.54 | D 2.16 | A 2 | P 2.46 | C 1.76 | F 1.96 | G 2.29 | H 1.6 | K 2.21
C8: Q 2.21 | V 2.74 | S 2.88 | N 2.58 | H 3.01 | P 2.7 | A 2.76 | R 2.32 | W 1.83 | M 2.71 | L 2.04 | Y 2 | G 2.08 | E 3.42 | F 2.24 | T 2.71 | I 2.49 | K 2.63 | D 3.11
Q13: R 2.04 | C 2.34 | N 2.58 | D 2.6 | H 2.53 | W 2.42 | Y 1.75 | A 2.72 | G 1.81 | S 2.4 | M 1.67 | F 1.87 | K 2.22 | L 1.67 | V 2.53 | I 1.94 | P 1.03 | T 2.41 | E 2.51
E3: K 2.03 | F 2.35 | A 2.08 | W 2.6 | P 1.56 | G 1.41 | I 1.91 | V 2.31 | Q 2.04 | R 2.54 | N 1.68 | M 1.85 | D 2.24 | S 2.15 | Y 1.68 | L 1.99 | C 1.76 | H 2.11
R14: K 3.16 | F 2.01 | T 2.75 | G 2.67 | A 2.83 | N 2.62 | L 2.37 | S 2.29 | Y 2.35 | M 3.51 | Q 2.32 | H 2.76 | W 2.36 | C 2.23 | V 1.65 | E 2.69 | P 1.8 | D 2.17 | I 1.9
T6: H 2.1 | P 2.77 | M 2.13 | D 2.62 | G 1.92 | F 2.22 | E 2.17 | W 2.11 | V 2.22 | L 1.89 | K 2.05 | I 2.74 | S 1.73 | Y 2.81 | N 2.67 | A 2.58 | Q 2.65 | C 1.94
